Test results published in KR20220147769A (dated 2022).
Residue numbers refer to the chain shown, from its start.

B1: RB6 (antibody, V domains shown)
VH: EVQLLESGGGLVQPGGSLRLSCAASGFTFSSYDMSWVRQAPGKGLEWVSGISYSGGSTYYADSVKGRFTISRDNSKNTLYLQMNSLRAEDTAVYYCARDVNFVPLVTFDYWGQGTLVTVSS
VL: QSVLTQPPSASGTPGQRVTLSCTGSSSNIGSNSVTWYQQLPGTAPKLLIYDDNQRPSGVPDRFSGSKSGTSASLAISGLRSEDEADYYCGTWDYSLSAYVFGGGTKLTVL
notes: also called clone RB6; antibody (iii)
B2: RD3 (antibody, V domains shown)
VH: EVQLLESGGGLVQPGGSLRLSCAASGFTFSDYAMSWVRQAPGKGLEWVSWIYSGSGNKYYADSVKGRFTISRDNSKNTLYLQMNSLRAEDTAVYYCARFPIARTSNSQSSYDGMDVWGQGTLVTVSS
VL: B1 VL with L20I, T23S, S33A, T35S, D51A, Q54K, T91A, Y94S, S97N
notes: also called clone RD3; antibody (iv)
B3: RD10 (antibody, V domains shown)
VH: EVQLLESGGGLVQPGGSLRLSCAASGFTFSDYAMSWVRQAPGKGLEWVSAIYPGGGSTYYADSVKGRFTISRDNSKNTLYLQMNSLRAEDTAVYYCARNLFGFDYWGQGTLVTVSS
VL: B1 VL with L20I, S33A, T35Y, N53S, Q54N, T91S, Y94D
notes: also called clone RD10; antibody (v)

target: T1, SARS-CoV S protein RBD antigen (SARS-CoV, UniProt P59594 306-527); assay: ELISA, 0.1 μg antigen coated, IgG4
T1 construct: also called SARS-CoV RBD

**Q.** Does B1 bind?
**A.** Result: binds

**Q.** Does B2 bind?
**A.** Result: binds

**Q.** Does B3 bind?
**A.** Result: binds
